The source of these data is article PMC5001591.

Conditions in all cases: EMSA: 4 nM 32P-RNA, 1X RNA Structure Buffer, 1 ug yeast RNA in 10 ul, 37 C 15 min (plus 1 h room temperature with mRNA); native 6% PAGE, 0.5X TBE, 4 C; pH and …
On the technique in general: Mobility shift assays separate free from complexed probe on a gel.

The target of series [1] is Hfq (UniProt P0A6X3). Description: EMSA.
For series [2], the target named is Hfq (UniProt P0A6X3). Description: footprinting (RNase T1).
Series [3] deals with Hfq. In words: EMSA.

As a reminder, the Kd is a measure of binding affinity in units of concentration.

Hfq (UniProt P0A6X3), sequence (P0A6X3 2-102): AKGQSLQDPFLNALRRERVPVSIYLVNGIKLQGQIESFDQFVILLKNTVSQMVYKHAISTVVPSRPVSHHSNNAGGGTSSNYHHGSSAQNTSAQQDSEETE

In the case of “GGGAUUCAGGCAAUGAAUUACUUUUGCAAGCCAUCGCAUUCUCUUAUGUUAUUAAUGAGUUAUGCUGAUUUGUUAAGCAGUUUUAUCAGGCUUGAAAUGGCGUCCAGCCCCGACAGGUGAAUCGUCGGGGCUGAUUUUUUC [SdsN137]”, the Kd in series [1] was determined as 80 nM. For the same substance, the binding entry in series [2] was “binds”.
For the substance SdsN137, the Kd in series [3] was 80 nM.
On to SdsN178, for which, in series [3], the Kd stood at 28 nM.
In the case of “GGGUUCAAACUAUCACAUAAAUAAGAUUUAUAUAUAAUUUAUAUUAUUCAGGCAAUGAAUUACUUUUGCAAGCCAUCGCAUUCUCUUAUGUUAUUAAUGAGUUAUGCUGAUUUGUUAAGCAGUUUUAUCAGGCUUGAAAUGGCGUCCAGCCCCGACAGGUGAAUCGUCGGGGCUGAUUUUUUC [SdsN178]”, the Kd in series [1] was 28 nM. In series [2], the binding entry was “binds”.
